The nanobody polyreactivity screen of Harvey et al. (2022)

Experiment: yeast display, Sf9 membrane polyspecificity reagent, FACS + sequencing; frameworks hold sequencing errors
Method in brief: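 Sorting gates, low and high (top ~1%), were placed on anti-HA fluorescence to track expression and on streptavidin fluorescence to track reagent binding. A clone's polyreactivity label is taken from the gate it came out of. The reagent was 10% biotinylated, detergent-solubilized Sf9 membrane, applied for 1 hour at 4 °C to galactose-induced yeast display cells.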

Sequence | polyreactivity (PSR sort gate)
QVQLVESGGGLVQAGGSLRFSCAASGFTFYVYAMGWYRHAPGKERELVAAISKSGGSTYYSDSVKGRFTISRDNAKNTVYLQMNSLKPEDTAVYYCAVYDKRSGYRGGHRYNSWGQGTQVTVSS | high polyreactivity
QVQLVESGGGLVQAGGSLRFSCAASGFTLQQYTMGWYRQAPGKERELVAAISTSGVRTYYADSVKGRFTISRDNAKNTVYLQMNSLKPEDTAVYYCNAAWVYGIGWYSGYDYWGQGTQVTVSS | high polyreactivity
QVQLVESGGGLVQAGGSLRFSCAASGLYYYAMGWYRQAPGKERALVAVITYSGGSTYYADSVKGRFTISRDNGKNSVYLQMNSLKPEDTAVYNCAAEDYYVALPGLYDYWGQGTQVTVSS | low polyreactivity
QVQLVESGGGLVQAGGSLRFSCAASGNIFVVYTMGWDRQAPGKERELVADITSIGTSTYYADSVKGRFTISRDNAKNTVYLQMNSLKPEDTAVYYCNKDGSVWGKYTEYYWGQGTQVTVAS | low polyreactivity
QVQLVESGGGLVQAGGSLRFSCAASGRIIEQNAMGWYIQAPGKERELVATITRRGGRTYYADSVKGRFTISRDNAKNTVYLQMNSLKPEDTAVYYCNQVSYARGYDYWGQGTQVTVSS | high polyreactivity
QVQLVESGGGLVQAGGSLRFSCAASGRTFRYYAMRWYRQAPGKERELVADISSTGRTYYADSVKGRFTISRDNAKNTVYLQMNSLNPEDSAVYYCAADYYSTYRTIYYYWGQGTQVSVSS | low polyreactivity
QVQLVESGGGLVQAGGSLRFSCAASGSIFDIYGMGWYRQAPGKESELVASISGGAGSTNYADSVKGRFTISRDYAKNTVYLQMNSLKPEDTAVYYCAAVCADPTEYDYWGQGTQVTVSS | low polyreactivity
QVQLVESGGGLVQAGGSLRFSCAASGSTFGFNAMGWYRQAPGKERELLPLFWSGGSTYYADSVNGRFTISRDNAKNSVYLQMNSLKPDDTAVYYCNKDSTPITRYDYWGQGTQVTVSS | low polyreactivity
QVQLVESGGGLVQAGGSLRFSCAASGSTFIGYDMGWYRQEPGKERELVAAISYSDGTYYAESVKGRFTISRDNAKNTVYLQMNSLNPEDTAVYYCAADSLYYRYDYWGQGTQVTVSS | low polyreactivity
QVQLVESGGGLVQAGGSLRFSCAASGSTFVYYGMGWDRQAPGKERELVAAITDIGDSTNYADSVKGRFTISRDNAKNTVYLQMNSLKPEDTAVYYCAASGRSVPYYGSPRNDYWGQGTQVTVSS | low polyreactivity
QVQLVESGGGLVQAGGSLRFSCAASGSTTYRYAMGWYRQAPGKERELVAAISSRGGSTYYADSVKGRFTISRDNAKNTVYLQMNSLKPEDTAVYYCAVKDRYSFRYDYWGQGTQVTVSS | high polyreactivity
QVQLVESGGGLVQAGGSLRFSCAASGYIFYKYAMGWYRHAPGKERELVAAIRRSGGSTYYADSVKGRFTISRDNAKNTVYLQMNSLKPEDTAVYYCAARYFRGSYPMGYWGQGTQVTVSS | high polyreactivity
QVQLVESGGGLVQAGGSLRFSCAAYGFIFTQYAMGCYRRAPGKERELVAAISWNGGRTYYADSVNGRFTISRDNEKNTVYLQMNSLKPEDTAVYYCAARIYLSKSFNYWGQGTQVTVSS | high polyreactivity
QVQLVESGGGLVQAGGSLRFSSAASGSIFGTYVMGWYRQAPGKERELVAAISWSGGSTYYADSVKGRFTISRDNAKNTVYLQMNSLKPEDTAVYYCAADSIRFEYEYWGQGTQVTVSS | high polyreactivity
QVQLVESGGGLVQAGGSLRFSWAASGFIFRSNAMGWYRQAPGKERELVAAISKSGGSTYYADSVKGRFTISRDTAKKTVYLQMNSLKPEDTAVYYCFVDYYPYDYWGQGTQVTVSS | low polyreactivity
QVQLVESGGGLVQAGGSLRIICAASGRTFDRYAMRGYRQAPGKERELVAASTRRGTTTYYADSVKVRFSISRDYAKNTVYLQMYSLKPEDTAVYYCAAKRGCVSRPDYGANDESWGQGTQVTVSS | high polyreactivity
QVQLVESGGGLVQAGGSLRIICAASGSIFARNAMGWYRQAPGKERELVASITWSGASTYDADSVKGRFTISRDNAMNTVYLQMNSLKPEDTAVYYCAATDQILSLDYSSYEYLGQGTQVTVSS | low polyreactivity
QVQLVESGGGLVQAGGSLRISCAASGCTFSFNAMGWYRPAPGKERELVAAITTADSTYYADSVKGRFTISRDNAKNTGYFQMNSLKPEDTAVYYCAADAYWEYDYWGQGTQVTVSS | low polyreactivity
QVQLVESGGGLVQAGGSLRISCAASGFICPQNTMGWYRQAPGTERELVAAITSCGSTYYADSVKGRFTISRDNGKNTVYLQMNSLKPEDTAVYYCAARPYGNWTYGYWGQGTQVTVSS | low polyreactivity
QVQLVESGGGLVQAGGSLRISCAASGFIFDGYAMGWYRQAPGKERELVAAITYSGGSTYYADSLKGRFTISRDNAKNTVYLQMNRLKPEDTAVYYCNAEYSSFSVVQKDSDMDYWGQGTQVTVSS | low polyreactivity
QVQLVESGGGLVQAGGSLRISCAASGFIFRYYTMGWYRQAPGKERELVATITSGGSTYYADSVKGRFTISRDNAKNTVYLQMNSLKPEDTAVYYCAKVRDVLWRFNYWGQGTEVTVSS | high polyreactivity
QVQLVESGGGLVQAGGSLRISCAASGFIFTRYVMGWYSQAPGKERELVAGISTRGARTYYADSVKGRFTISRDNAKNTVYLQMNSLKPEDTAVYYCAKDYYKHYYWGQGTQVTVSS | high polyreactivity

Sequence | polyreactivity (PSR sort gate)
QVQLVESGGGLVQAGGSLRISCAASGFIYTRYTMGWYRQAPGKERELVAVINSSGGSTYYADSVKGRFTISRDNAKNTVYLQMNSLKPEDTAVYYCNALSRYRIWSYGYWGPGTQVTVSS | high polyreactivity
QVQLVESGGGLVQAGGSLRISCAASGFTFFSNAMGWYRKAPGKERELVAAITSSGGSTYADTVKGRFTISRDNAKNTVYLQMNRLKPEDTAVYYCAADAQAPPGGFKEYDYWGQGTQVTVSS | low polyreactivity
QVQLVESGGGLVQAGGSLRISCAASGFTFGPYDMGWYRQAPGKERELVAAITDSSGSTHYADSVKGRFTISRDNAKNTVYFQMNSLKPEDTAVYTCAADDSSRTTYYYWGQGTEVTVSS | low polyreactivity
QVQLVESGGGLVQAGGSLRISCAASGFTFGRYAMGWYRQAPGKEREFVASISARGGNTFYADSVKGRFTISRDNAKNTVYLQMTSLKPEDTAVYYCNALTYFKRSEYYWGQGTQVTVSS | high polyreactivity
QVQLVESGGGLVQAGGSLRISCAASGFTFSLNGMGWYRQAPGKEREMVAAIRSGGSTNYADSVKGRFTISLDNAKYTVYIQMNSLKPEDTAVYYCATDIHSVHNNRDKHDYDYLGQGTQVTVSS | low polyreactivity
QVQLVESGGGLVQAGGSLRISCAASGFTFYIYAMGWYRQAPGKERELVAAISARGGSTYYADSVKGRFTISRDNAKNTVYLQMNSLKPEDTAVYYCNALYNYAEIYGRGYWGLGTQVTVSS | high polyreactivity
QVQLVESGGGLVQAGGSLRISCAASGFTLRVNAMGWYRQAPGKERELVAAISDSGGDTYYSNSVKGRFTISRDNAKNTVYLQMNSLKPEDTAVYYCAADDGSENDYWGQGTQVTVSS | low polyreactivity
QVQLVESGGGLVQAGGSLRISCAASGGIFFQNAMGWYRQAPGKERELVAAISWSAGSTYYADSVKGRFTISRDNAKNSVDLQMNRQKPEDTAVDSCAGRVGCGRAIDLYYYWGQGTQVTVSS | low polyreactivity
QVQLVESGGGLVQAGGSLRISCAASGGTFQPYAMGWYRQAPGKERELVAAITSSDGSTYYADSVKWRFTISRDNAKNTVYLQMNSLKPEDTAVYYCNATIASGYGDRYVDTSHDYWGQGTQVTVSS | low polyreactivity
QVQLVESGGGLVQAGGSLRISCAASGGTFRPNAKGWSRQAPGKERELVAAITRSGGSTYYADSVKGRFTISRDNAKNTVYLQRNSLKPEETAVYYCARDLREWGQGTQVTVSS | low polyreactivity
QVQLVESGGGLVQAGGSLRISCAASGIIFKGYAMGWYRQAPGKERELVAAISHNADSTYADSVKGRFTISRDNAKNTVYLQMNSLNPEDTAVYYCNADTPLRSDYWGQGTQVTVSS | low polyreactivity
QVQLVESGGGLVQAGGSLRISCAASGIIFRLNAMGWYRQAPGKERELVAAIRRRGGSTYYADSVKGRFTISRDNAKNTVYLQMNSLKPEDTAVYYCAKDPHGSDFGYWGQGTQVTVSS | low polyreactivity
QVQLVESGGGLVQAGGSLRISCAASGIIFVWNAIGWYRQAPGKERELVADISWSSGRTYYADSVKGRFTISRDNAKNTVYLQMNSLIPEDTAVYYCATDDFWNVIFYAYYPEFDYWGQGTQVTVSS | low polyreactivity
QVQLVESGGGLVQAGGSLRISCAASGITASNAMGWNRQAPGKERELVAAISCRGGRTYYADSVKGRFTISRDNAKNTVYLQMNSLKPEDTAVYYCAKRYYTAQSRSDYWGQGTQVTVSS | high polyreactivity
QVQLVESGGGLVQAGGSLRISCAASGITFQSNAMGWYRQAPGTERELVAGITGNGGSTYYADSVKGRFTISRDNAKNTVYLQMNSLKPEDTAVYYCNIGRRKRTRYDYWGQGTQGTVSS | high polyreactivity
QVQLVESGGGLVQAGGSLRISCAASGITLAKNAMGWYRQAPGKETELVAAISRRGGNTYYADSVKGRFTISRDNAKNTVYLQMNSLKPEDTAVYYCAVDYRSTGLGYWGQGTQVTVSS | high polyreactivity
QVQLVESGGGLVQAGGSLRISCAASGLIFRHNAMGWYRQAPGKERELVAAITGSGSTYYADSEKGRFTISRDNAKNTVYLQMNSLKPEDTAVYYGNADYPGGLQEEDYWGQGTQVTVSS | low polyreactivity
QVQLVESGGGLVQAGGSLRISCAASGLTFNAYAMGWYRQAPGKERELLADITTSDGSTFYADSVKGRFTISRDKATNTVYLQMNSLKPEDTAVYYCNADAYGWYSGPWFKWLLWYDYWGQGTQVTVSS | low polyreactivity
QVQLVESGGGLVQAGGSLRISCAASGLTFRRNAMGGYRQAPGKERELFAAITASGGSTYYADSVTGRFTISRDNAKNTVFLQMNSLKPEETAVYYSAAVNYRWYSRNYDHYYWGQGTQVTVSS | high polyreactivity
QVQLVESGGGLVQAGGSLRISCAASGLTFVYYTMGWYSQAPGKEREFVAGIDWSGGSTYYADSVKLRFTISRDNAKNTVYLQMNSLKPEDTAVYYCAAAVYYQYGVYRHDYWGQGTQVTVSS | low polyreactivity
QVQLVESGGGLVQAGGSLRISCAASGLTIVPNAMGWYRQAPGKERELVAAISNNGGRTYYADSVKGRFTISRDNAKNTVYLQMNSLKPEDTAVYYCAKYLSPGERHSYDYWGQGTQVTVSS | high polyreactivity
